Assay [1] addresses T1, myostatin (human, UniProt O14793 267-375).
T1 sequence: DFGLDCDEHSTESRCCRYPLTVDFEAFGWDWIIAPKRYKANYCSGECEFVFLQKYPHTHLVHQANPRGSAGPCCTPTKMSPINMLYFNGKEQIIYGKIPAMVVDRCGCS
Put plainly: cell-based or functional assay.

In assay [2] the target is T2, activin A (Homo sapiens (Human), UniProt P08476 311-426).
T2 sequence: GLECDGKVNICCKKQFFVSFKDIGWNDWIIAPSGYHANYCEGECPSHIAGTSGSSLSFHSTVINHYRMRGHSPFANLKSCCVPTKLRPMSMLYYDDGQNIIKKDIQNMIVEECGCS
As to the kind of experiment: cell-based or functional assay.

The target in assay [3] is T1, myostatin. As to the kind of experiment: KinExA solution equilibrium, ligand-coated beads, Cy5 anti-human Fc detection. On the procedure:
(§1) Solution-based equilibrium-binding assays using KinExA™ technology (Sapidyne Instruments, Inc.) were used to determine the dissociation equilibrium (KD) of ligand binding to ActRIIB-Fc polypeptides. UltraLink Biosupport beads (Pierce) was pre-coated with about 100 μg/ml each of myostatin, GDF-11, and activin A overnight, and then blocked with BSA. 1 pM and 3 pM of ActRIIB-Fc (E28W) (SEQ ID NO: 21) and svActRIIB-Fc (E28W, S44T) (SEQ ID NO: 10) samples were incubated with various concentrations (0.7 fM to 160 pM) of myostatin, activin A, and GDF-11 respectively in sample buffer at room temperature for 8 hours before being run through the ligand-coated beads. The amount of the bead-bound soluble receptor was quantified by fluorescent (Cy5) labeled goat anti-human-Fc antibody at 1 mg/ml in superblock. The binding signal is proportional to the concentration of free soluble receptor at equilibrium with a given myostatin, activin A, or GDF-11 concentration. KD was obtained from the nonlinear regression of the competition curves using a dual-curve one-site homogeneous binding model provided in the KinEx A™ software (Sapidyne Instruments, Inc.).
For orientation: In KinExA the mixture passes briefly over coated beads that capture the unbound partner.

Assay [4] concerns the target T2, activin A. The description is as above. How it is done:
as §1

In assay [5] the target is GDF-11 (Homo sapiens (Human)) (UniProt O95390). The assay is described as above.
Assay [6] shares this target. Put plainly: cell-based or functional assay.

B1: ActRIIB-Fc (E28W) (Fc fusion)
chain: ETRWCIYYNANWELERTNQSGLERCEGEQDKRLHCYASWRNSSGTIELVKKGCWLDDFNCYDRQECVATEENPQVYFCCCEGNFCNERFTHLPEAGGPEVTYEPPPTAPTGGGGSVECPPCPAPPVAGPSVFLFPPKPKDTLMISRTPEVTCVVVDVSHEDPEVQFNWYVDGVEVHNAKTKPREEQFNSTFRVVSVLTVVHQDWLNGKEYKCKVSNKGLPAPIEKTISKTKGQPREPQVYTLPPSREEMTKNQVSLTCLVKGFYPSDIAVEWESNGQPENNYKTTPPMLDSDGSFFLYSKLTVDKSRWQQGNVFSCSVMHEALHNHYTQKSLSLSPGK
notes: also called ActRIIB-IgG2Fc (E28W); ActRIIB-IgG Fc (E28W)
A word on the Kd: it is the equilibrium constant for the complex coming apart. Read a low Kd as higher affinity. With B1, the “IC50, luciferase activity of C2C12/pMARE-luc reporter cells at 4 nM ligand” value in the assay with myostatin [1] worked out at 0.95 nM; with activin A [2] it was 3.2 nM; in assay [6] it was 2.4 nM. Besides, the results for the Kd (with myostatin [3]; with activin A [4]; in assay [5]) were 0.1 pM, 0.2 pM and 0.1 pM, respectively.

B2: svActRIIB-Fc (E28W, S44T) (Fc fusion)
chain: ETRWCIYYNANWELERTNQTGLERCEGEQDKRLHCYASWRNSSGTIELVKKGCWLDDFNCYDRQECVATEENPQVYFCCCEGNFCNERFTHLPEAGGPEVTYEPPPTAPTGGGGSVECPPCPAPPVAGPSVFLFPPKPKDTLMISRTPEVTCVVVDVSHEDPEVQFNWYVDGVEVHNAKTKPREEQFNSTFRVVSVLTVVHQDWLNGKEYKCKVSNKGLPAPIEKTISKTKGQPREPQVYTLPPSREEMTKNQVSLTCLVKGFYPSDIAVEWESNGQPENNYKTTPPMLDSDGSFFLYSKLTVDKSRWQQGNVFSCSVMHEALHNHYTQKSLSLSPGK
notes: Made in 293-6E or CHO cells; also called svActRIIB-IgG2Fc (E28W, S44T); svActRIIB-IgG Fc (E28W, S44T)
Take B2: the “IC50, luciferase activity of C2C12/pMARE-luc reporter cells at 4 nM ligand” value amounted to 1.07 nM in the assay with myostatin [1], 3.6 nM in the assay with activin A [2] and 2.4 nM in assay [6]. The Kd (in the assay with myostatin [3]; with activin A [4]; in assay [5]) was 0.1 pM in each case.

The values above are taken from patent publication US20100168020A1 (Amgen, published 2010).
